Data on eleven molecules can be found in patent US20220056104A1 (Janssen / Centocor, published 2022).

As usually defined, the EC50 is the concentration needed to bring the measured effect to its halfway point.

Experiment [1] has as its target T1, Recombinant DR3-Fc (R&D Systems, cat. #943-D3) (UniProt Q93038 25-199, limits assumed).
T1 construct: dimeric MW~92 kDa; also called DR3 receptor; Fc-DR3; not shown: Fc part of the bought fusion
T1 sequence (looked up): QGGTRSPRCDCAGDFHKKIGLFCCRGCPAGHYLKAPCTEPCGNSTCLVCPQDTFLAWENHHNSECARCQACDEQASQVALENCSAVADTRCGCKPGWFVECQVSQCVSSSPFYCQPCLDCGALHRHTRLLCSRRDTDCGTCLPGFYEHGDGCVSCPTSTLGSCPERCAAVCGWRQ
The experiment can be described thus: ELISA. (In an ELISA, binding on a coated surface is turned into a signal by an enzyme label.)

In experiment [2] the target is T1, Recombinant DR3-Fc (R&D Systems, cat. …). The experiment can be described thus: ELISA, DR3-Fc immobilized. The method, then:
(§1) All ELISA-based measurements were collected in triplicate, and error values report the standard error between measurements. Recombinant DR3-Fc (R&D Systems, cat. #943-D3), dimeric MW˜92 kDa, was non-specifically immobilized onto plates (Nunc maxisorp, cat. #436110) in 100 μL DR3-Fc, diluted to 10 μg/mL onto a 96-well White Maxisorp plate (Nunc, cat #436110) (O/N, 4° C.). Plates were block for 1 hour at room temperature with 250 μl/well of casein buffer and blocking buffer was removed. 50 μL of TL1A variants were diluted in StartingBlock PBS (Thermo Fisher Scientific), at 25 μg/mL, diluting 3× over each well, according to the plate map description for 20160623) per well on a 96-well White Maxisorp plate (Nunc, cat #: 436110) (overnight at 4° C.).
(§2) Plates were washed three times with TBST. 100 μl/well polyclonal rabbit anti-human TL1A-biotin antibody (diluted 1:1000 in Starting Block PBS) was added and plates were incubated for 1 hour at room temperature with shaking at 150 rpm. TL1A-biotin antibody was removed and 100 μl/well streptavidin-HRP conjugate (diluted 1:10,000 in Starting Block PBS) was added to plates. […] 100 μl/well POD Chemiluminescence substrate (Roche, cat #: 11582950001) was added immediately prior to reading plate luminescence using a Molecular Devices M5 plate reader with a delay setting of 100 ms.

Experiment [3] has as its target T2, DcR3 (UniProt O95407 30-300, limits assumed).
T2 construct: the construct is not described; also called decoy receptor DcR3; TNFRSF6B
T2 sequence (looked up): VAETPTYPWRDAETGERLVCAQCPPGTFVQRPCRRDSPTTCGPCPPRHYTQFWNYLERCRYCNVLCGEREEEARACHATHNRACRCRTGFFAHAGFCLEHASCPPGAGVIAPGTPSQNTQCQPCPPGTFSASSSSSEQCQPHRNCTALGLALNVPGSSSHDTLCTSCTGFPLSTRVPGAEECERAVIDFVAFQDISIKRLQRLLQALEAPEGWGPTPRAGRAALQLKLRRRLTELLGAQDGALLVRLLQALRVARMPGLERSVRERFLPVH
The experiment can be described thus: ELISA, DcR3.

For experiment [4], the target named is T2, DcR3. The experiment can be described thus: ELISA, DcR3. This is another data set of the same source.
In experiment [5] the target is T1, Recombinant DR3-Fc (R&D Systems, cat. …). The experiment can be described thus: ELISA, DR3-Fc immobilized. An outline of the steps:
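DR3-Fc (10 μg/mL) was coated overnight at 4 °C, blocked with casein, then incubated overnight at 4 °C with TL1A variants from 25 μg/mL in 3-fold dilutions. Bound TL1A was detected with biotinylated rabbit anti-human TL1A and streptavidin-HRP, read by chemiluminescence; triplicates, errors as standard error.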
This is another data set of the same source.

For experiment [6] the target is unchanged. The experiment is described as follows: ELISA, DR3-Fc immobilized. The method, then: as §1
Plates were washed three times with TBST. 100 μl/well polyclonal rabbit anti-human TL1A-biotin antibody (diluted 1:1000 in Starting Block PBS) was added and plates were incubated for 1 hour at room temperature with shaking at 150 rpm. TL1A-biotin antibody was removed and 100 μl/well streptavidin-HRP conjugate (diluted 1:10,000 in Starting Block PBS) was added to plates. Plates were incubated for 1 hour at room temperature with shaking at 150 rpm. Plates were washed three times with TBST. 100 μl/well POD Chemiluminescence substrate (Roche, cat #: 11582950001) was added immediately prior to reading plate luminescence using a Molecular Devices M5 plate reader with a delay setting of 100 ms.
These combination mutants were tested for binding to DR3 and DcR3 (FIGS. 5E and 5F, respectively).
The source holds these as a separate data set.

Experiment [7] has the same target. The experiment is described as follows: ELISA, TL1A construct immobilized, DR3 titrated.
Experiment [8] has the same target. The experiment is described as follows: ELISA (FIG. 4C). The protocol: as §1, §2

Read-outs that look alike come from different tables or passages of the source.

B1: TL1W19 (His-TEV-TL1A-TL1A-TL1A) (ligand)
chain: HHHHHHENLYFQGAPLRADGDKPRAHLTVVRQTPTQHFKNQFPALHWEHELGLAFTKNRMNYTNKFLLIPESGDYFIYSQVTFRGMTSECSEIRQAGRPNKPDSITVVITKVTDSYPEPTQLLMGTKSVCEVGSNWFQPIYLGAMFSLQEGDKLMVNVSDISLVDYTKEDKTFFGAFLLAPLRADGDKPRAHLTVVRQTPTQHFKNQFPALHWEHELGLAFTKNRMNYTNKFLLIPESGDYFIYSQVTFRGMTSECSEIRQAGRPNKPDSITVVITKVTDSYPEPTQLLMGTKSVCEVGSNWFQPIYLGAMFSLQEGDKLMVNVSDISLVDYTKEDKTFFGAFLLAPLRADGDKPRAHLTVVRQTPTQHFKNQFPALHWEHELGLAFTKNRMNYTNKFLLIPESGDYFIYSQVTFRGMTSECSEIRQAGRPNKPDSITVVITKVTDSYPEPTQLLMGTKSVCEVGSNWFQPIYLGAMFSLQEGDKLMVNVSDISLVDYTKEDKTFFGAFLL
notes: Single-chain trimer, three TL1A copies in one chain; also called His-scTL1A; His-scTL1A (TL1W19)
Regarding B1, in experiment [1], the “fold weaker EC50 than other molecules” value was around 3 fold. Further, the EC50 in experiment [2] turned out to be 27.3 nM.

B2: TL1W2 (His-TEV-hTL1A 72-251) (ligand)
chain: HHHHHHENLYFQGLKGQEFAPSHQQVYAPLRADGDKPRAHLTVVRQTPTQHFKNQFPALHWEHELGLAFTKNRMNYTNKFLLIPESGDYFIYSQVTFRGMTSECSEIRQAGRPNKPDSITVVITKVTDSYPEPTQLLMGTKSVCEVGSNWFQPIYLGAMFSLQEGDKLMVNVSDISLVDYTKEDKTFFGAFLL
notes: Non-covalent trimer; entry holds the His-TEV tag; also called His-TL1A; His-TL1A (TL1W2)
B2: the EC50 with DcR3 [3] was 4.6 nM; in the experiment with DcR3 [4] it was 4.6 nM; in experiment [2], 6.8 nM; in experiment [5], 26.2 nM; in experiment [6], 26.2 nM; in experiment [7] it was 2.5 nM. In addition, the “Rel EC50” value with DcR3 [3] is 1 ratio (head: nM); with DcR3 [4], 1 ratio; in experiment [5], 1 ratio (head: nM); in experiment [6], 1 ratio.

B3: TL1W35 (C202S) (ligand)
chain: HHHHHHENLYFQGLKGQEFAPSHQQVYAPLRADGDKPRAHLTVVRQTPTQHFKNQFPALHWEHELGLAFTKNRMNYTNKFLLIPESGDYFIYSQVTFRGMTSECSEIRQAGRPNKPDSITVVITKVTDSYPEPTQLLMGTKSVSEVGSNWFQPIYLGAMFSLQEGDKLMVNVSDISLVDYTKEDKTFFGAFLL
Turning to B3, in experiment [8], the binding result is reported as “no binding”.

B4: TL1W109 (His-TEV-TL1A S187L) (ligand)
chain: HHHHHHENLYFQGLKGQEFAPSHQQVYAPLRADGDKPRAHLTVVRQTPTQHFKNQFPALHWEHELGLAFTKNRMNYTNKFLLIPESGDYFIYSQVTFRGMTSECSEIRQAGRPNKPDSITVVITKVTDLYPEPTQLLMGTKSVCEVGSNWFQPIYLGAMFSLQEGDKLMVNVSDISLVDYTKEDKTFFGAFLL
notes: also called TL1W109 (S187L)
In the case of B4, the concentration giving a half-maximal response (EC50) with DcR3 [3] amounted to 15.5 nM; in the experiment with DcR3 [4], 85.5 nM; in experiment [5] it was 17.7 nM; in experiment [6], 17.7 nM. In addition, the entries for the “Rel EC50” value (with DcR3 [3]; in experiment [5]; in experiment [6]) were 3.4 ratio (head: nM), 0.7 ratio (head: nM) and 0.7 ratio, respectively.

B5: TL1W45 (His-TEV-TL1A E190F) (ligand)
chain: HHHHHHENLYFQGLKGQEFAPSHQQVYAPLRADGDKPRAHLTVVRQTPTQHFKNQFPALHWEHELGLAFTKNRMNYTNKFLLIPESGDYFIYSQVTFRGMTSECSEIRQAGRPNKPDSITVVITKVTDSYPFPTQLLMGTKSVCEVGSNWFQPIYLGAMFSLQEGDKLMVNVSDISLVDYTKEDKTFFGAFLL
notes: also called TL1W45 (E190F)
B5: the values for the EC50 (in the experiment with DcR3 [4]; in experiment [5]; in experiment [6]) were 21.2 nM, 31.4 nM and 31.4 nM, respectively. In addition, the “Rel EC50” value was 1.2 ratio (head: nM) in experiment [5] and 1.2 ratio in experiment [6].

B6: TL1W122 (His-TEV-TL1A N207F) (ligand)
chain: HHHHHHENLYFQGLKGQEFAPSHQQVYAPLRADGDKPRAHLTVVRQTPTQHFKNQFPALHWEHELGLAFTKNRMNYTNKFLLIPESGDYFIYSQVTFRGMTSECSEIRQAGRPNKPDSITVVITKVTDSYPEPTQLLMGTKSVCEVGSFWFQPIYLGAMFSLQEGDKLMVNVSDISLVDYTKEDKTFFGAFLL
notes: also called TL1W122 (N207F)
For the molecule B6, the EC50 was 10.6 nM with DcR3 [3], 58.5 nM with DcR3 [4], 30.2 nM in experiment [5] and 30.2 nM in experiment [6]. The “Rel EC50” value in the experiment with DcR3 [3] was 2.3 ratio (head: nM); in experiment [5], 1.2 ratio (head: nM); in experiment [6] it was 1.2 ratio.

B7: TL1W80 (His-TEV-TL1A K111A) (ligand)
chain: HHHHHHENLYFQGLKGQEFAPSHQQVYAPLRADGDKPRAHLTVVRQTPTQHFANQFPALHWEHELGLAFTKNRMNYTNKFLLIPESGDYFIYSQVTFRGMTSECSEIRQAGRPNKPDSITVVITKVTDSYPEPTQLLMGTKSVCEVGSNWFQPIYLGAMFSLQEGDKLMVNVSDISLVDYTKEDKTFFGAFLL
notes: also called TL1W80 (K111A)
Turning to B7, the concentration for a half-maximal effect (EC50) with DcR3 [3] was determined as 16.3 nM; in the experiment with DcR3 [4], 89.8 nM; in experiment [5], 30 nM; in experiment [6] it was 30 nM. Moreover, the entries for the “Rel EC50” value (with DcR3 [3]; in experiment [5]; in experiment [6]) were 3.5 ratio (head: nM), 1.1 ratio (head: nM) and 1.1 ratio, respectively.

B8: TL1W38 (His-TEV-TL1A L123K) (ligand)
chain: HHHHHHENLYFQGLKGQEFAPSHQQVYAPLRADGDKPRAHLTVVRQTPTQHFKNQFPALHWEHEKGLAFTKNRMNYTNKFLLIPESGDYFIYSQVTFRGMTSECSEIRQAGRPNKPDSITVVITKVTDSYPEPTQLLMGTKSVCEVGSNWFQPIYLGAMFSLQEGDKLMVNVSDISLVDYTKEDKTFFGAFLL
notes: also called TL1W38 (L123K)
As to B8, the 50% effective concentration (EC50) came to 24.7 nM with DcR3 [3], 24.7 nM in the experiment with DcR3 [4], 29.5 nM in experiment [5] and 29.4 nM in experiment [6]. Further, the “Rel EC50” value is 5.4 ratio (head: nM) in the experiment with DcR3 [3], 1.1 ratio (head: nM) in experiment [5] and 1.1 ratio in experiment [6].

B9: TL1W95 (His-TEV-TL1A Q167A) (ligand)
chain: HHHHHHENLYFQGLKGQEFAPSHQQVYAPLRADGDKPRAHLTVVRQTPTQHFKNQFPALHWEHELGLAFTKNRMNYTNKFLLIPESGDYFIYSQVTFRGMTSECSEIRAAGRPNKPDSITVVITKVTDSYPEPTQLLMGTKSVCEVGSNWFQPIYLGAMFSLQEGDKLMVNVSDISLVDYTKEDKTFFGAFLL
notes: also called TL1W95 (Q167A)
In the case of B9, the EC50 with DcR3 [3] was found to be 32 nM; with DcR3 [4], 176 nM; in experiment [5], 17.1 nM; in experiment [6] it was 17.1 nM. Further, the “Rel EC50” value with DcR3 [3] is 7 ratio (head: nM); in experiment [5], 0.7 ratio (head: nM); in experiment [6], 0.7 ratio.

B10: TL1W92 (His-TEV-TL1A M158Y) (ligand)
chain: HHHHHHENLYFQGLKGQEFAPSHQQVYAPLRADGDKPRAHLTVVRQTPTQHFKNQFPALHWEHELGLAFTKNRMNYTNKFLLIPESGDYFIYSQVTFRGYTSECSEIRQAGRPNKPDSITVVITKVTDSYPEPTQLLMGTKSVCEVGSNWFQPIYLGAMFSLQEGDKLMVNVSDISLVDYTKEDKTFFGAFLL
notes: also called TL1W92 (M158Y)
B10: the EC50 was determined as 12.6 nM with DcR3 [3], 69.2 nM in the experiment with DcR3 [4], 16.6 nM in experiment [5] and 16.6 nM in experiment [6]. Also, the results for the “Rel EC50” value (with DcR3 [3]; in experiment [5]; in experiment [6]) were 2.7 ratio (head: nM), 0.6 ratio (head: nM) and 0.6 ratio, respectively.

B11: TL1W34 (C162S, C202S) (ligand)
chain: HHHHHHENLYFQGLKGQEFAPSHQQVYAPLRADGDKPRAHLTVVRQTPTQHFKNQFPALHWEHELGLAFTKNRMNYTNKFLLIPESGDYFIYSQVTFRGMTSESSEIRQAGRPNKPDSITVVITKVTDSYPEPTQLLMGTKSVSEVGSNWFQPIYLGAMFSLQEGDKLMVNVSDISLVDYTKEDKTFFGAFLL
notes: also called TL1A-C162S, C202S; C162S, C202S TL1A variant
With B11, the binding result in experiment [8] was “no binding”.
